Laboratory results reported in patent US20040204434A1, “Compounds and methods for lowering the abuse potential and extending the duration of action of a drug” (Controlled Chemicals Inc., priority 2003, published 2004).

Assays:
[1] = Nonenzymatic hydrolysis of oxycodone ester prodrugs to oxycodone in buffered solution (HPLC); assay type: physicochemical; details: pH 7, 37° C.
[2] = molecular target: T1, μ (rat) opioid receptor (Rattus norvegicus, UniProt P33535); assay: Inhibition of radio labeled ligand binding to membranes from C6 rat glioma cells expressing recombinant μ opioid receptor; details: in words
T1 construct: expressed in transfected cells; host or cells: C6 rat glioma cells (membranes)
T1 sequence (P33535 whole entry): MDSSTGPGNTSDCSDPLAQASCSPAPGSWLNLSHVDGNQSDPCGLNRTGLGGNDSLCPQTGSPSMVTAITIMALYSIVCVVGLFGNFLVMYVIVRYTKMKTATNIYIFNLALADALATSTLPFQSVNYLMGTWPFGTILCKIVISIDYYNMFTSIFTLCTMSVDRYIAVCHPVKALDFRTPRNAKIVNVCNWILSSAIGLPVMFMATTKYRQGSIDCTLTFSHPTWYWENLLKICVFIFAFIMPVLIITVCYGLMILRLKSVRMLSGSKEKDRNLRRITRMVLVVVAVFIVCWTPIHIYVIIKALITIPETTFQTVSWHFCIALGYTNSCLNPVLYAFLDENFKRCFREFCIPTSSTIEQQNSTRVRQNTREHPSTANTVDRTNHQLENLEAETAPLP
Description: (§1) Opioid-agonist activity was evaluated from the ability of the test article to stimulate [^35S]-GTP's binding.

[3] = molecular target: T1, μ (rat) opioid receptor; assay: Opioid-agonist activity: stimulation of [35S]-GTP's binding; assay type: biochemical
Description: as §1

[4] = tested on: Pancreatin; assay: Effect of pancreatin on release of oxycodone from prodrugs; details: in words
[5] = Release of oxycodone from prodrugs without pancreatin; details: 37° C., pH 7.4, no pancreatin

## COc1ccc2c3c1OC1C(OC(C)=O)=CCC4(O)C(C2)N(C)CCC314 (stereo not shown) [6-enolacetate]
[1]
  half-life for hydrolysis: ~96 h

## COc1ccc2c3c1O[C@H]1C(OC(=O)C(CCC(=O)O)NC(=O)OCc4ccccc4)=CC[C@@]4(O)[C@@H](C2)N(C)CC[C@]314 (stereo partly drawn) [Compound 1, 2-(benzyloxycarbonylamino)-pentanedioic acid 1-(3-methoxy-14-hydroxy-6,7-didehydro-4,5α-epoxy-17-methylmorphinan-6-yl) ester]
[2]
  affinity for the μ receptor relative to oxycodone: substantially lower
[3]
  EC50: 3.38 ± 0.29 µM

## poly(ethylene glycol), Mr 2,000, methyl ether, carboxy ((3-methoxy-14-hydroxy-6,7-didehydro-4,5α-epoxy-17-methylmorphinan-6-yl) ester) methyl ether [Compound 8]
[4]
  Effect of pancreatic enzymes on liberation of oxycodone from prodrug: markedly enhanced
[5]
  Half-Life for Hydrolysis, no pancreatin: 6.9 h

## COc1ccc2c3c1O[C@H]1C(=O)CC[C@@]4(OC(C)=O)[C@@H](C2)N(C)CC[C@]314 [14-acetate ester of oxycodone]
[1]
  half-life for the hydrolysis: ~0.333 h

## poly(ethylene glycol), Mr 2,000, methyl ether, N-carbonylglutamic acid 1-(3-methoxy-14-hydroxy-6,7-didehydro-4,5α-epoxy-17-methylmorphinan-6-yl) ester [Compound 4]
[4]
  Effect of pancreatic enzymes on liberation of oxycodone from prodrug: do not markedly effect
[5]
  Half-Life for Hydrolysis, no pancreatin: 5.5 h

## poly(ethylene glycol), Mr 2,000, methyl ether, carbonylimidodiacetic acid mono-(3-methoxy-14-hydroxy-6,7-didehydro-4,5α-epoxy-17-methylmorphinan-6-yl) ester [Compound 5]
[4]
  Effect of pancreatic enzymes on liberation of oxycodone from prodrug: do not markedly effect
[5]
  Half-Life for Hydrolysis, no pancreatin: 11 h
